Results reported in US20210340524A1 (MIT, published 2021).

Experiments:
FMC63 IgG [1] = molecular target: T1, FMC63 IgG; experiment: flow cytometry of yeast clones stained with 5 µM FMC63 IgG, alanine scan
T1 construct: biotinylated in the flow cytometry assays; also called FMC63 IgG antibody; biotinylated FMC63 IgG
Protocol: (§1) To determine the effect of amino acid position on binding to FMC63, an alanine mutagenesis experiment was performed were each amino acid was mutated to alanine and binding to FMC63 was assessed. Specifically, a representative mimotope, […] To assess the tolerance of additional alanine residues, one alanine or two alanine residues were inserted between the two cysteine residues (SEQ ID NOs: 52 and 53) to determine the impact the loop structure had on mimotope binding to FMC63. To generate mutations, two complementary oligos with the codon replaced at the desired site were denatured at 95° C. and annealed by slow cooling to 25° C. (decreasing by 0.5° C./second). The annealed oligos were treated with T4 PNK (T4 Polynucleotide Kinase) to add a terminal phosphate, and then ligated into digested pCT-CON2 vector. Positive clones having the correct oligo inserted were tested and transformed into competent EBY100 yeast cells. Following generation of mutated clones, flow cytometry was performed by staining the yeast with 5 μM FMC63 IgG antibody to measure binding of the mimotope (FIG. 11).

FMC63 IgG [2] = molecular target: T1, FMC63 IgG; experiment: flow cytometry of yeast clones, titration with 0.01-1000 nM biotinylated FMC63 IgG, MFI (geometric mean)
Text: (§2) In order to validate specific sequences, clones were isolated and measured for their affinity to FMC63. Specifically, a subset of mimotope clones were selected from the fixed library sequence described in Example 5.

[3] = molecular target: T2, anti-mCD19 IgG (clone 1D3); experiment: ELISA, titration with anti-mCD19 (1D3) IgG, OD(450nm); value printed beside the circle curve
T2 construct: Anti-mouse CD19 IgG; also called 1D3 IgG; biotinylated 1D3 antibody

[4] = molecular target: T2, anti-mCD19 IgG (clone 1D3); experiment: ELISA, titration with anti-mCD19 (1D3) IgG, OD(450nm); value printed beside the square curve
[5] = molecular target: T2, anti-mCD19 IgG (clone 1D3); experiment: ELISA, titration with anti-mCD19 (1D3) IgG, OD(450nm); value printed beside the triangle curve
FMC63 scFv = molecular target: T3, FMC63 scFv (biotinylated); experiment: flow cytometry of yeast clones, titration with biotinylated FMC63 scFv and streptavidin-PE, MFI (geometric mean)
T3 construct: also called biotinylated FMC63 scFv; FMC63-scFv monomer
Protocol: The binding affinity of the isolated yeast clones to FMC63 was determined.

FMC63 IgG [6] = molecular target: T1, FMC63 IgG; experiment: flow cytometry of yeast clones stained with 5 µM FMC63 IgG, tolerance of extra alanine residues
Protocol: as §1

FMC63 IgG [7] = molecular target: T1, FMC63 IgG; experiment: flow cytometry (MFI), yeast clone titrated with 0.01-1000 nM biotinylated FMC63 IgG; yeast-displayed clone, FACS titration 0.01-1000 nM biotinylated FMC63 IgG
Text: as §2

FMC63 IgG [8] = molecular target: T1, FMC63 IgG; experiment: flow cytometry (MFI), yeast clone titrated with 0.01-1000 nM biotinylated FMC63 IgG
Text: as §2

FMC63 IgG [9] = molecular target: T1, FMC63 IgG; experiment: ELISA with FMC63 IgG; ELISA, not FACS titration
Protocol: Next, the affinity of the […] (SEQ ID NO: 5) mimotope to FMC63 was determined.

T1 sequence (VH, as listed by the source, chain 1 of 2): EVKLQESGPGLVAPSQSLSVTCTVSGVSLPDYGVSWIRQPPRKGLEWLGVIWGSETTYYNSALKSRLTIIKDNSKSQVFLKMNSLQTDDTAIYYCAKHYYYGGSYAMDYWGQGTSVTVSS
T1 sequence (VL, as listed by the source, chain 2 of 2): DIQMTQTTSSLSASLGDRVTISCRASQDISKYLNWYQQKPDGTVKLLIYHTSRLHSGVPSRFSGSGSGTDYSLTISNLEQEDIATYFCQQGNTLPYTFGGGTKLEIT
T2 sequence (VH, as listed by the source, chain 1 of 2): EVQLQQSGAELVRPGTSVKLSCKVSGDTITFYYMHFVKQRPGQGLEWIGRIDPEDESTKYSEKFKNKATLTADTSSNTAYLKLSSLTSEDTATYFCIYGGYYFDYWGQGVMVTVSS
T2 sequence (VL, as listed by the source, chain 2 of 2): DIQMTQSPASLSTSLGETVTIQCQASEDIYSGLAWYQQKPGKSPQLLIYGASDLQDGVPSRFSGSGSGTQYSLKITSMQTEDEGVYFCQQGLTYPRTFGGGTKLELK
T3 sequence (scFv, as listed by the source): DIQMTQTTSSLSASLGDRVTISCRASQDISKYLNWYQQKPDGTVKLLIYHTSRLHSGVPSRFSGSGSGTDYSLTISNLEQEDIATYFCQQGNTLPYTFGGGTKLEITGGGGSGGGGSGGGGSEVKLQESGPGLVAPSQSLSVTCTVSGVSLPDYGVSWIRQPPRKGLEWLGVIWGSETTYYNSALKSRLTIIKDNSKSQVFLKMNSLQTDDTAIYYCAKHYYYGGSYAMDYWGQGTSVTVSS

ALCPWSCREL (also called alanine at R1 (position 1)): no binding (tested: 5 µM) (FMC63 IgG [1]).

RLCPWDCREL [FMC63 Mimotope(F8), yeast-displayed] was tested, and the “EC50 (read off the curve)” value (FMC63 IgG [2]) was about 10 nM.

RICPWACVEL [FMC63 Mimotope(H8), yeast-displayed] was tested, and the “EC50 (read off the curve)” value (FMC63 IgG [2]) was about 8 nM.

RLAPWSCREL (also called alanine at C3 (position 3)): no binding (tested: 5 µM) (FMC63 IgG [1]).

RLCAWSCREL (also called alanine at P4 (position 4)): no binding (tested: 5 µM) (FMC63 IgG [1]).

RLCPASCREL (also called alanine at W5 (position 5)): no binding (tested: 5 µM) (FMC63 IgG [1]).

RLCPWSAREL (also called alanine at C7 (position 7)): no binding (tested: 5 µM) (FMC63 IgG [1]).

In the case of SKLKGKSGPE (also called 10 amino acid mimotope) [1D3 mimotope H1 (SKLKGKSGPE) as used in the ELISA of FIG. 13], the Kd [3] is reported as 190 nM.

B1: 1D3 Mimotope Multimer H1 + C11 (SKLKGKSGPEFHWFINVPPF) (peptide)
peptide: SKLKGKSGPEFHWFINVPPF
notes: Chemically synthesized 20 amino acid fusion of two mimotopes; also called fusion mimotope
B1 gave a Kd [4] of 102 nM.

B2: 1D3 Mimotope Multimer H1 + E2 (SKLKGKSGPEIRVLMSRVFA) (peptide)
peptide: SKLKGKSGPEIRVLMSRVFA
notes: as for B1
B2 showed a Kd [5] of 6.7 nM.

With RICPWNCKEL (also called F12 mimotope) [FMC63 Mimotope(F12), yeast-displayed] the “EC50 (read off the curve)” value (FMC63 scFv) was about 40 nM.

With RICPWNCKELPSPPRIFGNR [K-C2 mimotope, yeast-displayed] the “EC50 (read off the curve)” value (FMC63 scFv) was about 10 nM.

B3: FMC63 Mimotope Mutant RLCPWSAACREL (SEQ ID NO: 52), yeast-displayed (peptide)
peptide: RLCPWSAACREL
notes: also called two alanine residues inserted between the two cysteine residues
B3: no binding (tested: 5 µM) (FMC63 IgG [6]).

B4: FMC63 Mimotope Mutant RLCPWSACREL (SEQ ID NO: 53), yeast-displayed (peptide)
peptide: RLCPWSACREL
notes: also called one alanine inserted between the two cysteine residues
B4: no binding (tested: 5 µM) (FMC63 IgG [6]).

In the case of RHCPWNCSLL [FMC63 Mimotope (A1), yeast-displayed], the Kd (FMC63 IgG [7]) is reported as over 1000 nM.

RICPWSCRAP [FMC63 Mimotope (D12), yeast-displayed] gave a Kd (FMC63 IgG [8]) of over 1000 nM.

RHCPWNCSLL [high-affinity mimotope RHCPWNCSLL (SEQ ID NO: 5) as used in the ELISA of FIG. 7] showed a Kd (FMC63 IgG [9]) of about 1400 nM.
